Molecular target: FUS-RRM wild type (Homo sapiens, UniProt P35637 278-385)
Experiment: NMR titration

Sequence of FUS-RRM wild type (P35637 278-385): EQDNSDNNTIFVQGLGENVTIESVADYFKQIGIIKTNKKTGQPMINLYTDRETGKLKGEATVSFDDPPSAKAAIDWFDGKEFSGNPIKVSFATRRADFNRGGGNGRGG

B1: 24-mer d(TTAGGG)4 (NMR) (structured_DNA)
DNA: TTAGGGTTAGGGTTAGGGTTAGGG
binding result: binds

Reference: paper PMC3534766
